{"source": "patent US8247168B2", "about": "“Regulation of gene expression by protein methylation” (University of Southern California, priority 1998, dated 2012)", "molecules": {"B1": {"name": "GST-CARM1: glutathione S-transferase fusion protein of CARM1 produced in E. coli (protein)", "chain": "AAAATAVGPGAGSAGVAGPGGAGPCATVSVFPGARLLTIGDANGEIQRHAEQQALRLEVRAGPDAAGIALYSHEDVCVFKCSVSRETECSRVGRQSFIITLGCNSVLIQFATPHDFCSFYNILKTCRGHTLERSVFSERTEESSAVQYFQFYGYLSQQQNMMQDYVRTGTYQRAILQNHTDFKDKIVLDVGCGSGILSFFAAQAGARKIYAVEASTMAQHAEVLVKSNNLTDRIVVIPGKVEEVSLPEQVDIIISEPMGYMLFNERMLESYLHAKKYLKPSGNMFPTIGDVHLAPFTDEQLYMEQFTKANFRYQPSFHGVDLSALRGAAVDEYFRQPVVDTFDIRILMAKSVKYTVNFLEAKEGDLHRIEIPFKFHMLHSGLVHGLAFWFDVAFIGSIMTVWLSTAPTEPLTHWYQVRCLFQSPLFAKAGDTLSGTCLLIANKRQSYDISIVAQVDQTGSKSSNLLDLKNPFFRYTGTTPSPPPGSHYTSPSENMWNTGSTYNLSSGVAVAGMPTAYDLSSVIAGGSSVGHNNLIPLANTGIVNHTHSRMGSIMSTGIVQGSSGAQGGGGSSSAHYAVNNQFTMGGPAISMASPMSIPTNTMHYGS", "modifications": "left off: a dimerising Fc or GST", "notes": "glutathione S-transferase fusion protein of CARM1 produced in E. coli"}}, "key": {"[1]": {"test_system": "hnRNPA1", "assay": "Methylation of hnRNP A1, SDS-PAGE and fluorography (FIG. 8C)", "type": "biochemical, human", "details": "0.083 mg/ml hnRNP-A1", "experimental": "CARM1 and PRMT1 have different protein methyltransferase substrate specificities. CARM1 methylates histone H3, whereas PRMT1 methylates histone H4. […] (A,B) Calf thymus histones (Boehringer Mannheim) were incubated for 30 min at 30° C. in 32.5 μl reactions containing 20 mM Tris-Cl, 0.2 M NaCl, 4 mM EDTA, pH 8.0, 0.32 mg/ml individual histone (2a, 2b, 3, or 4) or 1.3 mg/ml mixed histone (M), 0.037 mg/ml GST-CARM1 or GST-PRMT1, and 7 μM S-adenosyl-L-[methyl-^3H]methionine (specific activity of 14.7 Ci/mmol). Reactions were stopped by addition of SDS-NuPAGE sample buffer (Novex), and 40% of each stopped reaction was then subjected to SDS-PAGE in 4-12% NuPAGE Bis-Tris gradient gels (Novex) using the Na-MES running buffer. Gels were stained with Coomassie Blue R-250 (A), and then subjected to fluorography (Chamberlin, M. (1978) Anal. Biochem. 98:132) for 12 h at −70° C. on sensitized Kodak XAR-5 film (B). Molecular weight markers (MW) are shown at left. Concentrations of GST fusion proteins were determined in comparison with bovine serum albumin standards (Sigma) by SDS polyacrylamide gel electrophoresis and Coomassie Blue staining; it was assumed that bovine serum albumin stained twice as intensely as most other proteins. Concentrations of histones and hnRNP A1 were determined by the method of Lowry (Lowry, O. H. et al. (1951) J. Biol. Chem. 193:265). […]"}, "[2]": {"test_system": "androgen receptor, estrogen receptor, and thyroid hormone receptor", "assay": "Reporter gene activation by hormone-activated nuclear receptors in transiently transfected CV-1 cells", "type": "cell-based", "details": "co-expression of GRIP1 with NR, CV-1 cells, hormone present (lane d)", "experimental": "(A) Transient transfection assays with CV-1 cells were performed as in FIG. 5 with 0.5 μg of GK1 reporter gene and 0.5 μg of each of the indicated vectors. (B) CV-1 cells were transiently transfected as in FIG. 5 with the following vectors, as indicated: 0.5 μg of nuclear receptor expression vector pSVAR0 (Brinkmann, A. O. et al. (1989) J. Steroid Biochem. Molec. Biol. 34:307) expressing AR, pHE0 (Green, S. et al. (1988) Nucleic Acids Res. 16:369) expressing ER, or pCMX.hTRβ1 (Feng, W. et al. (1998) Science 280:1747) expressing TR; 0.5 μg of a luciferase reporter gene with an appropriate promoter, MMTV promoter for AR, or MMTV promoter with the native glucocorticoid response elements replaced by a single estrogen response element for ER or palindromic thyroid hormone response element for TR (Umesono, K. and R. M. Evans (1989) Cell 57:1139); 0.5 μg of pSG5.HA-GRIP1; and 0.5 μg of pSG5.HA-CARM1 or pSG5.HA-CARM1 (VLD mutant). Transfection efficiency was monitored by using βgalactosidase activity expressed from 0.1 μg of co-transfected pCMV-βgal vector (Hong, H. et al. (1996) Proc. Natl. Acad. Sci. USA 93:4948-4952) as an internal control. After transfection, cells were grown in charcoal-treated serum; where indicated 20 nM hormone (H), i.e. dihydrotestosterone for AR, estradiol for ER, or triiodothyronine for TR, was included during the last 40 h of culture. […]"}, "[3]": {"molecular_target": "T1, K1 peptide SEQ ID NO: 5 […]-NH2 (Mus musculus, UniProt Q9WVG6, W314R)", "T1 construct": "A 3.2-kb partial CARM1 cDNA clone with an open reading frame of 606 amino acids (CARM1(3-608)); made in house; host or cells: E. coli strain BL21", "T1 sequence (Q9WVG6 3-608 W314R)": "B1 chain", "assay": "Methyltransferase reaction with K1 peptide substrate, reversed-phase HPLC separation", "type": "biochemical", "details": "substrate K1 peptide (120 μM); enzyme 0.03-0.05 mg/ml"}, "[4]": {"test_system": "R1 peptide SEQ ID NO: 4 […]-NH2", "assay": "Methyltransferase reaction with R1 peptide substrate, reversed-phase HPLC separation", "type": "biochemical", "details": "substrate R1 peptide (120 μM); enzyme 0.03-0.05 mg/ml"}, "[5]": {"test_system": "mixed histones (calf thymus)", "assay": "Methyltransferase reaction with mixed histones, reversed-phase HPLC separation", "type": "biochemical", "details": "substrate mixed histones (2.7 mg/ml), enzyme 0.03-0.05 mg/ml"}}, "note": "Marks after values point to notes of the source that are not given here.", "data": [{"molecule": "PRMT1: related mammalian protein arginine methyltransferase [reference compound]", "values": [{"measurement": "methylation of hnRNPA1", "setting": "[1]", "result": "good substrate"}]}, {"molecule": "GRIP1: p160 nuclear receptor coactivator", "values": [{"measurement": "enhancement of reporter gene expression by the hormone-activated NR", "setting": "[2]", "result": "2 to 27", "unit": "fold"}]}, {"molecule": "B1", "values": [{"measurement": "Methyltransferase specific activity", "setting": "[3]", "result": 0.7, "unit": "pmol/min/mg"}, {"measurement": "Methyltransferase specific activity", "setting": "[4]", "result": "21.6-54.5^a pmol/min/mg"}, {"measurement": "Methyltransferase specific activity", "setting": "[5]", "result": 971, "unit": "pmol/min/mg"}]}]}
